Test results reported in US20220089758A1 (REVMAB BIOSCIENCES USA, published 2022).

Columns and labels:
[1] = biological target: T1, CD40 protein displayed on cell surface (UniProt P25942 21-277, limits assumed); experiment: cell-based or functional assay
[2] = biological target: T2, recombinant CD40 ECD-Fc fusion protein (UniProt P25942 21-193, limits assumed, biotinylated (site not stated)); experiment: BLI (Octet), biotinylated CD40 ECD-Fc captured on streptavidin probe, antibody in solution
T2 construct: extracellular domain; also called biotinylated CD40 ECD-Fc; not shown: Fc
Procedure: Binding affinity to recombinant CD40 ECD-Fc fusion protein were determined using Bio-Layer Interferometry (BLI) on Octet system. Briefly, biotinylated CD40 ECD-Fc were captured by streptavidin probe and the antibody association/dissociation were measured with light interferometry in realtime. KD were then calculated by Kₒₙ and Koff.

[3] = biological target: T1, CD40 protein displayed on cell surface; experiment: flow cytometry on HEKBlue CD40L reporter cells, fluorescent secondary antibody, median fluorescence intensity
From the text: (§1) HEKBlue CD40L reporter cells were harvested and stained with anti-CD40 and fluorescent secondary antibodies. Antibodies binding are shown in median fluorescence intensity.

[4] = biological target: T1, CD40 protein displayed on cell surface; experiment: flow cytometry on HEKBlue CD40L reporter cells, fluorescent secondary antibody, median fluorescence
From the text: as §1

[5] = biological target: T1, CD40 protein displayed on cell surface; experiment: binding to CD40-expressing cell; method not described

T2 sequence (P25942 21-193 limits assumed): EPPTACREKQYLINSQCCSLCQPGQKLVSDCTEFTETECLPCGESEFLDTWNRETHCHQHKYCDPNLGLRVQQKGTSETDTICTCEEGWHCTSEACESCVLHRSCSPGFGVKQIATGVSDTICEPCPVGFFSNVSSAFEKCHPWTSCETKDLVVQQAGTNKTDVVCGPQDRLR
T1 sequence (P25942 21-277 limits assumed): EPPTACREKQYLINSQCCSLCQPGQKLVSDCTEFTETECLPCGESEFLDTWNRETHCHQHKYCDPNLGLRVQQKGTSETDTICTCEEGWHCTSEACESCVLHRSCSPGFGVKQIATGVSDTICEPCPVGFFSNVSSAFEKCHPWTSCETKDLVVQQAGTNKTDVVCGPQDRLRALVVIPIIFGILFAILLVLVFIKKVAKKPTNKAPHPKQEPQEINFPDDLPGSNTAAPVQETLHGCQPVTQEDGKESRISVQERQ

Binder | EC50 in activating B cell assessed by CD80 expression (CD19+ cells, flow cytometry) [1] [nM] | EC50 in activating B cell assessed by CD86 expression (CD19+ cells, flow cytometry) [1] [nM] | EC50 in activating MoDC assessed by CD86 expression [1] [nM] | EC50 in activating monocyte derived dendritic cell (MoDC) assessed by CD80 expression [1] [nM] | EC50 of CD40 activation, SEAP activity (Quanti-Blue, absorbance at 650 nm) of HEKBlue CD40L reporter cells [1] [nM] | Kd [2] [nM] | EC50 [3] [nM] | EC50 [4] [µg/mL] | binding result [5]
APX005M (antibody, V domains shown) VH: QVQLVESGGGVVQPGRSLRLSCAASGFSFSSTYVCWVRQAPGKGLEWIACIYTGDGTNYSASWAKGRFTISKDSSKNTVYLQMNSLRAEDTAVYFCARPDITYGFAINFWGPGTLVTVSS VL: DIQMTQSPSSLSASVGDRVTIKCQASQSISSRLAWYQQKPGKPPKLLIYRASTLASGVPSRFSGSGSGTDFTLTISSLQPEDVATYYCQCTGYGISWPIGGGTKVEIK | 0.41 | 0.021 | 1.7 | 1.6 | 10 | 0.041 | 0.82 | 0.123 | 
Antibody clone 151 (antibody, V domains shown, Rabbit monoclonal antibody; also called 151H1/151L1) VH: QSVEESGGRLVTPGTPLTLTCTVSGFSLSSNAISWVRQAPGKGLEWIGVIDAGGSTYFASWAKGLFTISKTSSTTVDLQMTSLTTEDTATYFCARGWSRHDFWGPGTLVTVSS VL: DVVMTQTPASVSEPVGGTVTIKCQASQSISNILAWYQQKPGQPPRLLIYSASTLASGVSSRFKASGSGTEFTLTISDLECADAATYYCQGYDSTVGVGAFGGGTEVVVK |  |  |  |  |  | 0.084 |  |  | 
Antibody clone 6 (antibody, V domains shown, Rabbit monoclonal antibody; also called 6H2/6L2) VH: QSLEESGGRLVTPGTPLTLTCTASGFDFSRYHMCWVRQAPGKGLEWIGIIYVSDNTYYATWAKGRFTISRTSTTVDLKITSPTTEDTATYFCVRVGSFWSSKLWGPGTLVTVSS VL: DVVMTQTPASVSEPVGGTVTINCQASENIYSSLAWYQQKPGQPPKLLIYEASNLESGVSSRFSGSGSGTEFTLTISDLECADAATYYCQSTYFGNSYVFAFGGGTEVVVK | 0.17 | 0.14 | 22 | 29 | 8 | 0.377 | 0.63 | 0.0945 | 
Antibody clone 166 (antibody, V domains shown, Rabbit monoclonal antibody; also called 166H2/166L1) VH: QSLEESGGRLVTPGTPLTLTCTASGFDLSRYHMNWVRQAPGKGLEWIGIIYVSDDSYYASWAKGRFTISKTSTAVDLKITSPTTEDTATYFCARVGSVWSSKLWGPGTLVTVSS VL: DVVMTQTPASVSEPVGGTVTIKCQASENIYNNLAWYQQKPGQPPKLLIYRASTLESGVPSRFKGSGSGTEFTLTISDLECADAATYYCQSTYFGGSYVFAFGGGTEVVVK |  |  |  |  |  | 0.42 |  |  | 
Antibody clone 6-z (antibody, V domains shown, Humanized antibody based on clone 6; also called 6H2-z/6L2-z) VH: EVQLVESGGGLVQPGGSLRLSCAASGFDFSRYHMSWVRQAPGKGLEWVGIIYVSDNTYYATWAKGRFTISRDNSKNTLYLQMNSLRAEDTAVYYCVRVGSFWSSKLWGQGTLVTVSS VL: DIQMTQSPSTLSASVGDRVTITCQASENIYSSLAWYQQKPGKAPKLLIYEASNLESGVPSRFSGSGSGTEFTLTISSLQPDDFATYYCQSTYFGNSYVFAFGGGTKVEIK |  |  |  |  |  |  |  |  | binds

The remaining lines, values ahead:

EC50 in activating B cell assessed by CD80 expression (CD19+ cells, flow cytometry) [1] [nM] | EC50 in activating B cell assessed by CD86 expression (CD19+ cells, flow cytometry) [1] [nM] | EC50 in activating MoDC assessed by CD86 expression [1] [nM] | EC50 in activating monocyte derived dendritic cell (MoDC) assessed by CD80 expression [1] [nM] | EC50 of CD40 activation, SEAP activity (Quanti-Blue, absorbance at 650 nm) of HEKBlue CD40L reporter cells [1] [nM] | Kd [2] [nM] | EC50 [3] [nM] | EC50 [4] [µg/mL] | binding result [5] | Binder
0.0027 | 0.0015 | 1.3 | 0.74 | 0.34 | 0.00604 | 0.36 | 0.0541 |  | Antibody clone 5 (antibody, V domains shown, Rabbit monoclonal antibody; also called 5H2/5L2) VH: QSVKESGGGLFKPTDTLTLTCTVSGFSLSSNAISWVRQAPGKGLEWIGIIYASGDTYYASWAKGRFTISKTSSTTVDLKMTSLTTEGTATYFCARGYTTLYFWGPGTLVTVSS VL: QIVMTQTPASVSAAVGGTVTIKCQASESISTRLAWYQQKPGQPPKLLIYSASTLPSGVPSRFSGSGSGTDFTLTISGVQCDDAATYYCQGGYSSGAGTAFGGGTEVVVK
 |  |  |  |  | 0.012 |  |  |  | Antibody clone 233 (antibody, V domains shown, Rabbit monoclonal antibody; also called 233H1/233L1) VH: QEQLVESGGGLVQPEGSLTLTCTASGFSFSYYSWACWVRQAPGKGLEWIACIDGGGSRATYYASWAKGRFTISTTSSTTVTLQMTSLTAADTATYFCSRSDYNGYISYFDLWGPGTLVTVSS VL: AFELTQTPSSVEAAVGGTVTINCQASQSIRSDLAWYQQKPGQPPKLLIYKASTLASGVPSRFRGSGSGTEYTLTISDLECADAATYYCQSYYHSSSTAFGGGTEVVVK
 |  |  |  |  |  |  |  | binds | Antibody clone 5-z (antibody, V domains shown, Humanized antibody based on clone 5; also called 5H2-z/5L2-z) VH: EVQLVESGGGLVQPGGSLRLSCAASGFSLSSNAISWVRQAPGKGLEWVGIIYASGDTYYASWAKGRFTISRDNSKNTLYLQMNSLRAEDTAVYYCARGYTTLYFWGQGTLVTVSS VL: DIQMTQSPSSVSASVGDRVTITCQASESISTRLAWYQQKPGKAPKLLIYSASTLPSGVPSRFSGSGSGTDFTLTISSLQPEDFATYYCQGGYSSGAGTAFGGGTKVEIK
